Laboratory results taken from IntAct's records for PubMed 29039417.

B1: Protein PTHB1 (Homo sapiens), Q3SYG4 (parent)
chain: MSLFKARDWWSTILGDKEEFDQGCLCLANVDNSGNGQDKIIVGSFMGYLRIFSPHPAKTGDGAQAEDLLLEVDLRDPVLQVEVGKFVSGTEMLHLAVLHSRKLCVYSVSGTLGNVEHGNQCQMKLMYEHNLQRTACNMTYGSFGGVKGRDLICIQSMDGMLMVFEQESYAFGRFLPGFLLPGPLAYSSRTDSFLTVSSCQQVESYKYQVLAFATDADKRQETEQQKLGSGKRLVVDWTLNIGEQALDICIVSFNQSASSVFVLGERNFFCLKDNGQIRFMKKLDWSPSCFLPYCSVSEGTINTLIGNHNNMLHIYQDVTLKWATQLPHIPVAVRVGCLHDLKGVIVTLSDDGHLQCSYLGTDPSLFQAPNVQSRELNYDELDVEMKELQKIIKDVNKSQGVWPMTEREDDLNVSVVVSPNFDSVSQATDVEVGTDLVPSVTVKVTLQNRVILQKAKLSVYVQPPLELTCDQFTFEFMTPDLTRTVSFSVYLKRSYTPSELEGNAVVSYSRPTDRNPDGIPRVIQCKFRLPLKLICLPGQPSKTASHKITIDTNKSPVSLLSLFPGFASQSDDDQVNVMGFHFLGGARITVLASKTSQRYRIQSEQFEDLWLITNELILRLQEYFEKQGVKDFACSFSGSIPLQEYFELIDHHFELRINGEKLEELLSERAVQFRAIQRRLLARFKDKTPAPLQHLDTLLDGTYKQVIALADAVEENQGNLFQSFTRLKSATHLVILLIALWQKLSADQVAILEAAFLPLQEDTQELGWEETVDAAISHLLKTCLSKSSKEQALNLNSQLNIPKDTSQLKKHITLLCDRLSKGGRLCLSTDAAAPQTMVMPGGCTTIPESDLEERSVEQDSTELFTNHRHLTAETPRPEVSPLQGVSE
partner: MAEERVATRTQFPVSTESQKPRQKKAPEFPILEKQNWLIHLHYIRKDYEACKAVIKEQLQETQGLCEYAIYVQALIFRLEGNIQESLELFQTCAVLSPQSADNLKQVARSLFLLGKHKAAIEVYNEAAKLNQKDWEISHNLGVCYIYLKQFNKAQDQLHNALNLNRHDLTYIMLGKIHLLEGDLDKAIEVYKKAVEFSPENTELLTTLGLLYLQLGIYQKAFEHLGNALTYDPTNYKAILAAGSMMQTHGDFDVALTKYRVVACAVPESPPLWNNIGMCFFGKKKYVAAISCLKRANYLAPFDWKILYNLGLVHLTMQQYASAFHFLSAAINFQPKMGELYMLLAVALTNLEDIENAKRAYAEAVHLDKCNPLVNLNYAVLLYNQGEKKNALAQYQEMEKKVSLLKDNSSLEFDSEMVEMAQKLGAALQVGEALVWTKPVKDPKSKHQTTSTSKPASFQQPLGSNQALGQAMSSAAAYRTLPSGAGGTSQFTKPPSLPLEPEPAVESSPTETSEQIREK

Variants of: B1
Details: with bbs4_human BBS4, Q96RK4

Variant | effect of a mutation on the interaction
T496K | with no effect
T496E | with no effect
R493K | with no effect
R493A | with no effect
R493E | with no effect
D517E | with no effect
D517A | with no effect
I519A | with no effect
I519E | with no effect
I519K | with no effect
V522K | with no effect
G518E | with no effect
G518K | with no effect
G518A | with no effect
V485A | with no effect
V485K | with no effect
V485E | with no effect
F474K | with no effect
F474E | with no effect
R521K | with no effect
R521A | with no effect
K492E | with no effect
K492A | with no effect
R483E | with no effect

Variant | effect of a mutation on the interaction
R483A | with no effect
N503K | with no effect
N503A | with no effect
L533K | with no effect
L533A | with no effect
E475K | with no effect
L500K | with no effect
L500A | with no effect
P520K | with no effect
P520A | with no effect
P479K | with no effect
P479E | with no effect
P479A | with no effect
S488E | with no effect
S488A | with no effect
V506E | disrupting interaction strength
Y495K | with no effect
Y495E | with no effect
Y495A | with no effect
R510K | with no effect
R510A | with no effect
R510E | with no effect
V505A | with no effect
V505K | with no effect

Variant | effect of a mutation on the interaction
K532A | with no effect
K532E | with no effect
E499A | with no effect
Y508K | with no effect
L531A | with no effect
L531K | with no effect
P511K | with no effect
P511E | with no effect
L491K | with no effect
T512E | with no effect
T512K | with no effect
T512A | with no effect
I523K | with no effect
D480K | with no effect
D480E | with no effect
S509E | with no effect
S509K | with no effect
S509A | with no effect
L529P | disrupting interaction strength
L529A | with no effect
L529E | with no effect
R514E | with no effect
R514K | with no effect
T478E | with no effect

Variant | effect of a mutation on the interaction
T478K | with no effect
R528K | with no effect
A504E | with no effect
Y490A | with no effect
Y490E | with no effect
Y490K | with no effect
Q524K | with no effect
Q524E | with no effect
Q524A | with no effect
D513K | with no effect
D513E | with no effect
T484E | with no effect
T484A | with no effect
P530K | with no effect
P530S | disrupting interaction strength
F487S | disrupting interaction strength
F487E | with no effect
V489E | with no effect
V489K | with no effect
P516E | with no effect
P516A | with no effect
F527E | with no effect
F527K | with no effect
S494K | with no effect

Variant | effect of a mutation on the interaction
S494E | with no effect
G502R | disrupting interaction strength
G502E | with no effect
G502K | with no effect
L481E | with no effect
S486R | disrupting interaction strength
S486A | with no effect
S486E | with no effect
S486K | with no effect
M477E | with no effect
M477A | with no effect
C525A | with no effect
C525K | with no effect
C525E | with no effect
K526E | with no effect
S498K | with no effect
N515C | disrupting interaction strength
N515A | with no effect
S507E | with no effect
S507A | with no effect
P497A | with no effect
P497E | with no effect

Results, then the variant that gave them:

effect of a mutation on the interaction | Variant
with no effect | T496A
with no effect | D517K
with no effect | V522A
with no effect | V522E
with no effect | F474A
with no effect | R521E
with no effect | R483K
with no effect | N503E
with no effect | L533E
with no effect | I534A
with no effect | I534E
with no effect | E475A
with no effect | F476K
with no effect | F476A
with no effect | F476E
with no effect | L500E
with no effect | P520E
with no effect | S488K
with no effect | V506A
with no effect | V506K
with no effect | V505E
with no effect | E499K

effect of a mutation on the interaction | Variant
with no effect | Y508E
with no effect | Y508A
with no effect | L531E
with no effect | P511A
with no effect | L491A
with no effect | L491E
with no effect | I523A
with no effect | I523E
with no effect | D480A
disrupting interaction strength | S509P
with no effect | L529K
with no effect | R514A
with no effect | T478A
with no effect | R528A
with no effect | R528E
with no effect | A504K
with no effect | E501K
with no effect | E501A
with no effect | D513A
with no effect | T484K
with no effect | P530A
with no effect | P530E

effect of a mutation on the interaction | Variant
disrupting interaction strength | P530L
with no effect | T482E
with no effect | T482K
with no effect | T482A
with no effect | F487A
with no effect | F487K
with no effect | V489A
with no effect | P516K
with no effect | F527A
with no effect | S494A
with no effect | G502A
with no effect | L481K
with no effect | L481A
with no effect | M477K
with no effect | K526A
with no effect | S498A
with no effect | S498E
with no effect | N515K
with no effect | N515E
with no effect | S507K
with no effect | P497K
